94 variants from the supplement of paper PMC10567573 can be followed below.

B1: CDKL4 (parent)
chain: AVKKFVESEDDPVVKKIALREIRM
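Also: lentivirally expressed fusions sorted by FACS into six bins by GFP to DsRed ratio, PSI derived from sequencing read proportions per bin multiplied by bin number.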

In the data set the parent is B1. Kind of data set: protein stability index of a GFP-peptide fusion (GPS, HEK-293T) (PSI 1-6); higher = more stable. As to conditions: c terminus: a fixed tail appended.
Take AVKKFVEPEDDPVVKKIALREIRM [S8P]: the protein stability index worked out at 2.7.
To AVKKFVETEDDPVVKKIALREIRM [S8T] belongs 3.14; to AVKKFVEIEDDPVVKKIALREIRM [S8I], 2.54.
The same measure for AVKKFVEEEDDPVVKKIALREIRM [S8E]: 3.07.
To AVKKFVEHEDDPVVKKIALREIRM [S8H] belongs 3.02; to AVKKFVEMEDDPVVKKIALREIRM [S8M], 3.04; to AVKKFVEGEDDPVVKKIALREIRM [S8G], 2.68.
As to AVKKFVEVEDDPVVKKIALREIRM [S8V], the protein stability index is 2.64.
On to AVKKFVESEDDPVVKKIALEEIRM [R20E], for which the protein stability index was found to be 3.74.
Take AVKKFVESEDDPVVKKIALYEIRM [R20Y]: the protein stability index amounted to 2.25.
The same measure for AVKKFVESEDDPVVKKIALPEIRM [R20P]: 2.87; for AVKKFVESEDDPVVKKIALIEIRM [R20I]: 1.39; for AVKKFVESEDDPVVKKIALNEIRM [R20N]: 3.74.
AVKKFVESEDDPVVKKIALTEIRM [R20T]: the protein stability index turned out to be 2.88.
To AVKKFVESEDDPVVKKIALMEIRM [R20M] belongs 2.13; to AVKKFVESEDDPVVKKIALCEIRM [R20C], 2.92.
The same measure for AVKKFVESEDDPVVKKIALAEIRM [R20A]: 3.21; for AVKKFVESEDDPVVKKIALWEIRM [R20W]: 2.43; for AVKKFVESEDDPQVKKIALREIRM [V13Q]: 3.47.
The same measure for AVKKFVESEDDPPVKKIALREIRM [V13P]: 3.29; for AVKKFVESEDDPNVKKIALREIRM [V13N]: 3.28.
With AVKKFVESEDDPIVKKIALREIRM [V13I], the protein stability index stood at 2.83.
To AVKKFVESHDDPVVKKIALREIRM [E9H] belongs 2.71; to AVKKFVESWDDPVVKKIALREIRM [E9W], 2.38.
For the variant AVKKFVESADDPVVKKIALREIRM [E9A], the protein stability index stood at 2.4.
The same measure for AVKKFVESQDDPVVKKIALREIRM [E9Q]: 3.19; for AVKKFVESVDDPVVKKIALREIRM [E9V]: 2.48; for AVKKFVESMDDPVVKKIALREIRM [E9M]: 1.76.
To AVKKFVESIDDPVVKKIALREIRM [E9I] belongs 2.51.
For the variant AVKKFVESSDDPVVKKIALREIRM [E9S], the protein stability index worked out at 2.97.
The same measure for AVKKFVESLDDPVVKKIALREIRM [E9L]: 1.64.
For the variant AVKKFVESEDDPVVVKIALREIRM [K15V], the protein stability index was 1.6.
The same measure for AVKKFVESEDDPVVTKIALREIRM [K15T]: 2.66; for AVKKFVESEDDPVVEKIALREIRM [K15E]: 3.44.
The same measure for AVKKFVESEDDPVVAKIALREIRM [K15A]: 2.26.
The same measure for AVKKFVESEDDPVVRKIALREIRM [K15R]: 2.81; for AVKKFVESEDDPVVNKIALREIRM [K15N]: 2.88; for AVKKFVESEDDPVVWKIALREIRM [K15W]: 2.06.
As for AVKKFVESEDDPVVDKIALREIRM [K15D], the protein stability index worked out at 3.59.
The same measure for AVKKFVSSEDDPVVKKIALREIRM [E7S]: 3.04; for AVKKFVPSEDDPVVKKIALREIRM [E7P]: 2.97.
To AVKKFVVSEDDPVVKKIALREIRM [E7V] belongs 2.54.
To AVKKFVASEDDPVVKKIALREIRM [E7A] belongs 2.99.
In the case of AVKKFVMSEDDPVVKKIALREIRM [E7M], the protein stability index turned out to be 2.43.
AVKKFVNSEDDPVVKKIALREIRM [E7N]: the protein stability index was determined as 3.19.
To AVKKFVRSEDDPVVKKIALREIRM [E7R] belongs 2.52; to AVKKFVGSEDDPVVKKIALREIRM [E7G], 1.99; to AVKKFVESEDDPVVKKIALREIRQ [M24Q], 3.92.
For the variant AVKKFVESEDDPVVKKIALREIRK [M24K], the protein stability index came to 3.11.
To AVKKFVESEDDPVVKKIALREIRL [M24L] belongs 2.74; to AVKKFVESEDDPVVKKIALREIRI [M24I], 2.97.
The same measure for AVKKFVESEDDPVVKKIALREIRE [M24E]: 3.41; for AVKKFVESEDDPVVKKIALREIRG [M24G]: 3.07.
To AVKQFVESEDDPVVKKIALREIRM [K4Q] belongs 3.17.
Regarding AVKVFVESEDDPVVKKIALREIRM [K4V], the protein stability index was found to be 2.55.
To AVKTFVESEDDPVVKKIALREIRM [K4T] belongs 3.25.
To AVKPFVESEDDPVVKKIALREIRM [K4P] belongs 4.01; to AVKMFVESEDDPVVKKIALREIRM [K4M], 2.34; to AVKGFVESEDDPVVKKIALREIRM [K4G], 3.5.
With AVKNFVESEDDPVVKKIALREIRM [K4N], the protein stability index is 2.92.
The same measure for AVKKFVESEDDPVVKKYALREIRM [I17Y]: 2.85.
To AVKKFVESEDDPVVKKNALREIRM [I17N] belongs 3.7; to AVKKFVESEDDPVVKKSALREIRM [I17S], 4.28; to AVKKFVESEDDPVVKKFALREIRM [I17F], 2.79.
To AVKKFVESEDDPVVKKTALREIRM [I17T] belongs 4.48; to AVKKFVESEDDPVVKKQALREIRM [I17Q], 3.46; to AVKKFVESEDDPVVKKMALREIRM [I17M], 2.87.
As for AVKKFVESEDDPVVKKPALREIRM [I17P], the protein stability index stood at 3.53.
To AVEKFVESEDDPVVKKIALREIRM [K3E] belongs 3.72; to AVLKFVESEDDPVVKKIALREIRM [K3L], 2.34.
To AVIKFVESEDDPVVKKIALREIRM [K3I] belongs 1.91.
As for AVVKFVESEDDPVVKKIALREIRM [K3V], the protein stability index is 1.95.
Regarding AVNKFVESEDDPVVKKIALREIRM [K3N], the protein stability index was determined as 3.45.
To AVAKFVESEDDPVVKKIALREIRM [K3A] belongs 2.83.
With AVFKFVESEDDPVVKKIALREIRM [K3F], the protein stability index came to 1.76.
In the case of AVHKFVESEDDPVVKKIALREIRM [K3H], the protein stability index came out at 3.6.
Consider AVPKFVESEDDPVVKKIALREIRM [K3P], for which the protein stability index came out at 3.02.
Take AVDKFVESEDDPVVKKIALREIRM [K3D]: the protein stability index came to 3.23.
In the case of AVKKFVESEDDPVVKGIALREIRM [K16G], the protein stability index was 3.57.
The same measure for AVKKFVESEDDPVVKIIALREIRM [K16I]: 2.19.
To AVKKFVESEDDPVVKRIALREIRM [K16R] belongs 3.18; to AVKKFVESEDDPVVKNIALREIRM [K16N], 3.52; to AVKKFVESEDDPVVKLIALREIRM [K16L], 2.63.
To AVKKFVESEDDPVVKPIALREIRM [K16P] belongs 2.61.
For AVKKFVESEDDPVVKYIALREIRM [K16Y], the protein stability index turned out to be 2.44.
Regarding AVKKFVESEDDPVVKEIALREIRM [K16E], the protein stability index was 3.95.
To AVKKFVESEDDPVVKDIALREIRM [K16D] belongs 3.48.
Regarding AVKKFVESEDDPVVKKIALRMIRM [E21M], the protein stability index was 1.46.
As to AVKKFVESEDDPVVKKIALRVIRM [E21V], the protein stability index was found to be 2.46.
The same measure for AVKKFVESEDDPVVKKIALRQIRM [E21Q]: 2.45; for AVKKFVESEDDPVVKKIALRNIRM [E21N]: 2.96.
To AVKKFVESEDDPVVKKIALRSIRM [E21S] belongs 2.35.
The same measure for AVKKFVESEDDPVVKKIALRIIRM [E21I]: 2.99; for AVKKFVESEDDPVVKKIALRPIRM [E21P]: 2.57.
